The target in assay [1] is Antigen 2 (Consensus D, biotinylated peptide from gp41 epitope region II of HIV1 subtype D) (HIV1 subtype D (consensus)). As to the kind of experiment: bridge ELISA, Bi-Antigen 2 + Dig-Antigen 4. (ELISA stands for enzyme-linked immunosorbent assay.)
The target in assay [2] is Antigen 1 (Consensus B, biotinylated peptide from gp41 epitope region II of HIV1 subtype B) (HIV1 subtype B (consensus)). As to the kind of experiment: bridge ELISA, Bi-Antigen 1 + Dig-Antigen 3.

For Negative control, the signal is 0.03 U in assay [1] and 0.05 U in assay [2].

Source of the values: patent US20030054336A1.
